For the experiment, the target named is T1, GST-BAP1, purified recombinant (human, UniProt Q92560 1-729).
T1 construct: BRCA1-associated protein 1 (BAP1), human, wild type, cloned from MCF10A cells into pGEX-6p-1; also called purified GST-BAP1; source: E. coli BL21 (DE3), purified (glutathione sepharose 4B)
T1 sequence (looked up): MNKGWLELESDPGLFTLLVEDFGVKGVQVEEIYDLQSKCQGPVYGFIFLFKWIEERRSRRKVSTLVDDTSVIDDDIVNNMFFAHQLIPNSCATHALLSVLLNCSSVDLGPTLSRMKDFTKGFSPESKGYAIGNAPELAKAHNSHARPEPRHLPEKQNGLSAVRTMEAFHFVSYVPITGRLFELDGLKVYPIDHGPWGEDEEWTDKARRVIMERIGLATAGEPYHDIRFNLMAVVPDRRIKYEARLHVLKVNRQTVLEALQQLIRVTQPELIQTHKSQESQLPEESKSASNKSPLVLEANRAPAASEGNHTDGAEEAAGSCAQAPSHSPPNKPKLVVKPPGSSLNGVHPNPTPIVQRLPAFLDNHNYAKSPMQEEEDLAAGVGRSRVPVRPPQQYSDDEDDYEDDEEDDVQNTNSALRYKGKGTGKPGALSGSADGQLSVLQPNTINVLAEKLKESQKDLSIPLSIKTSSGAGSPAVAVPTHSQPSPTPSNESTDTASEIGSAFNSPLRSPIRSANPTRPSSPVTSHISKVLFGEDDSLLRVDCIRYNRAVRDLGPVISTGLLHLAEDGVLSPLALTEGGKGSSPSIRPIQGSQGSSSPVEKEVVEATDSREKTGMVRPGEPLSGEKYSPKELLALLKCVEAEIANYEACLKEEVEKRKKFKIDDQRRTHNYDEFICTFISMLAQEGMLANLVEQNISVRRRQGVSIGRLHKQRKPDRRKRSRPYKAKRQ
The experiment is described as follows: pull-down; purified recombinant GST-BAP1 (and GST) pulled down with glutathione beads; KLF5-6 × His detected by WB. The note with it: both partners purified.

B1: KLF5-6 × His, purified recombinant (natural protein)
chain: not shown
notes: Krüppel-like zinc-finger transcription factor 5 (KLF5), subcloned into the pET28-3C vector; The tag is printed after the protein's name; not repeated for this construct; source: E. coli BL21 (DE3), purified (Ni-NTA)
On to B1, for which the binding result is reported as “binds”.
